The results in this text go back to patent US20200239573A1 (CRESCENDO BIOLOGICS, published 2020).

Assay [1] has as its target T1, human PD-1 expressed on cells (CHO human PD-1 cells) (human, UniProt Q15116 21-288).
T1 construct: also called CHO TREX human PD-1 cell line; CHO PD-1
As to the kind of experiment: FMAT 1.57 epitope competition on CHO human PD-1 cells; competitor 1.57-Strep; sample kept 1 day in mouse serum. As to the method:
(§1) For the epitope competition assay reagents were prepared in FMAT assay buffer. […] Plates were incubated for a minimum of 1.5 hours at room temperature then fluorescence measured in the FL2 (502 nm-537 nm) and FL5 (677-800 nm) channels on the Mirrorball plate reader (TTP) following excitation at 488 nm and 640 nm. Data was expressed as a % of the total binding control (i.e. % control) after subtraction of the background signal determined from the non-specific binding control wells.
(§2) Serum stability of VH and multivalent VH constructs was assessed by measurement of their activity following incubation for 0, 1, 4 or 7 days in mouse serum (Sigma M5905).

The target of assay [2] is T2, mouse PD-1 protein (mouse, UniProt Q02242 25-167).
T2 construct: Detected with anti human-Fc cryptate, so probably Fc tagged; also called mouse PD-1 (R&D Systems cat no. 1021-PD)
T2 sequence (looked up): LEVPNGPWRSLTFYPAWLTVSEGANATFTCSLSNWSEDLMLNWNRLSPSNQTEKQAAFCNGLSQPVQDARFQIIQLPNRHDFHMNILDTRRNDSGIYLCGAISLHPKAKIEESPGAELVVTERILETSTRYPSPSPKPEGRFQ
As to the kind of experiment: HTRF binding, 2 nM mouse PD-1. As for the experimental part:
(§3) e) Species Cross Reactivity Testing Purified […] were tested for their ability to bind to human PD-1 (R&D Systems cat no. 1086-PD), cynomolgus PD-1 (Acro Biosystems cat no. PD-1-05254) and mouse PD-1 (R&D Systems cat no. 1021-PD) in an HTRF Binding assay format. All reagents and serially diluted VH were prepared in assay buffer containing PBS, 0.1% BSA and 0.4M Potassium Fluoride. Samples or assay buffer (non-specific binding) were incubated with 2 nM human/cynomolgus or mouse PD-1, 1 nM Anti human-Fc Cryptate PAb (Cisbio cat. no. 61HFCKLB) and 30 nM anti His-D2 (CisBio cat no 61HISDLA) in black 384-shallow well assay plates for a minimum of 3 hours at room temperature. Time-resolved fluorescent emission at 620 nm and 665 nm was measured following excitation at 337 nm on the BMG PHERAstar plate reader. The HTRF ratio were calculated ((665 nm emission/620 nm emission)*10000) and the data corrected for (non-specific binding) to give the specific binding signal.
For orientation: Time-resolved FRET reads energy transfer from a long-lived donor to a nearby acceptor.

Assay [3] concerns the target T1, human PD-1 expressed on cells (CHO …). As to the kind of experiment: cell-based or functional assay.
For assay [4], the target named is T3, cynomolgus PD-1 recombinant protein (cynomolgus, UniProt B0LAJ3 25-170).
T3 construct: Detected with anti human-Fc cryptate, so probably Fc tagged; also called cyno PD-1; cynomolgus PD-1 (Acro Biosystems cat no. PD-1-05254); not shown: The vendor's carrier tag; It is probably a human Fc, since detection used anti human-Fc cryptate
T3 sequence (B0LAJ3 entry or part of it limits assumed): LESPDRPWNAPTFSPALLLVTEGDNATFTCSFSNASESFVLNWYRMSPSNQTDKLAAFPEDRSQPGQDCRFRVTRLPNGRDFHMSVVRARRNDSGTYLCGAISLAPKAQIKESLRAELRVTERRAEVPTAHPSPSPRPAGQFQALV
Nature of the assay: HTRF binding, 2 nM PD-1, anti-Fc cryptate and anti-His-D2. As to the method:
as §3

Assay [5] has as its target T4, recombinant human PD-1 Fc chimera (human, UniProt Q15116 25-167).
T4 construct: Bought protein; also called human PD-1-huFc; huPD-1-Fc; not shown: human Fc
The description is as above. As for the experimental part:
as §3

Assay [6] deals with T1, human PD-1 expressed on cells (CHO …). As to the kind of experiment: FMAT epitope competition on CHO human PD-1 cells; competitor 1 nM 1.1-Strep. As for the experimental part: as §1
Assay [7] shares this target. Nature of the assay: FMAT 1.57 epitope competition on CHO human PD-1 cells; competitor 1.57-Strep; sample kept 0 days in mouse serum. As to the method: as §1, §2
Assay [8] has the same target. Nature of the assay: FMAT direct binding to CHO human PD-1 cells; column headed CHO PD-1 binding IC50 (M). From the text: Plates were read in the FL2 (502 nm-537 nm) and FL5 (677-800 nm) channels on the TTP Mirrorball plate reader following excitation at 488 nm and 640 nm.

T1 sequence (Q15116 21-288): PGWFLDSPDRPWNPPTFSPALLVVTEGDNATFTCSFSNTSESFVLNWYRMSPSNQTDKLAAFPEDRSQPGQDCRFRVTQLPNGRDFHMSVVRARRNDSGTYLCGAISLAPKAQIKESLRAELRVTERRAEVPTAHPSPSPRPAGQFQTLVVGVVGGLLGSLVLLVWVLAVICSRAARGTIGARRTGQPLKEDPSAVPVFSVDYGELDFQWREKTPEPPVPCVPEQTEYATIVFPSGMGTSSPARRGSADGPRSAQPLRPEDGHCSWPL
T4 sequence (Q15116 25-167 limits assumed, change not shown): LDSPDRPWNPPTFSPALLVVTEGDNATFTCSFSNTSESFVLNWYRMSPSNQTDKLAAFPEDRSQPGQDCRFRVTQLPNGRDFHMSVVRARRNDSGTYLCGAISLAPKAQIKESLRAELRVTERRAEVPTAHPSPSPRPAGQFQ

B1: Humabody® 1.92 (VHH)
VHH: EVQLVESGGGLVKPGGSLRLSCAASGFTFSDESMTWMRQAPGKGLEWVSYISSGGGVKFYADSVKGRFTISRDNAKNSLYLQMNSLRAEDTAVYYCAREAPLRLGESPHDAFDISGQGTMVTVSS
notes: human VH single domain antibody
For orientation: IC50 means the concentration needed to halve the response being measured. As a reminder, the EC50 is the concentration at which the effect is half-maximal. Take B1: the results for the IC50 in assay [1], in assay [6] and in assay [7] were 4.4 nM, 0.79 nM and 4.4 nM, respectively. Also, the binding result in assay [2] is “no binding”. In assay [3], the “Reporter Assay EC50” value stood at 13 nM. The EC50 in assay [4] turned out to be 4.1 nM; in assay [5] it was 2.6 nM; in assay [8], 0.1 nM.
